Biological target: ATP2A2, P16615-1
Sequence (P16615 whole entry): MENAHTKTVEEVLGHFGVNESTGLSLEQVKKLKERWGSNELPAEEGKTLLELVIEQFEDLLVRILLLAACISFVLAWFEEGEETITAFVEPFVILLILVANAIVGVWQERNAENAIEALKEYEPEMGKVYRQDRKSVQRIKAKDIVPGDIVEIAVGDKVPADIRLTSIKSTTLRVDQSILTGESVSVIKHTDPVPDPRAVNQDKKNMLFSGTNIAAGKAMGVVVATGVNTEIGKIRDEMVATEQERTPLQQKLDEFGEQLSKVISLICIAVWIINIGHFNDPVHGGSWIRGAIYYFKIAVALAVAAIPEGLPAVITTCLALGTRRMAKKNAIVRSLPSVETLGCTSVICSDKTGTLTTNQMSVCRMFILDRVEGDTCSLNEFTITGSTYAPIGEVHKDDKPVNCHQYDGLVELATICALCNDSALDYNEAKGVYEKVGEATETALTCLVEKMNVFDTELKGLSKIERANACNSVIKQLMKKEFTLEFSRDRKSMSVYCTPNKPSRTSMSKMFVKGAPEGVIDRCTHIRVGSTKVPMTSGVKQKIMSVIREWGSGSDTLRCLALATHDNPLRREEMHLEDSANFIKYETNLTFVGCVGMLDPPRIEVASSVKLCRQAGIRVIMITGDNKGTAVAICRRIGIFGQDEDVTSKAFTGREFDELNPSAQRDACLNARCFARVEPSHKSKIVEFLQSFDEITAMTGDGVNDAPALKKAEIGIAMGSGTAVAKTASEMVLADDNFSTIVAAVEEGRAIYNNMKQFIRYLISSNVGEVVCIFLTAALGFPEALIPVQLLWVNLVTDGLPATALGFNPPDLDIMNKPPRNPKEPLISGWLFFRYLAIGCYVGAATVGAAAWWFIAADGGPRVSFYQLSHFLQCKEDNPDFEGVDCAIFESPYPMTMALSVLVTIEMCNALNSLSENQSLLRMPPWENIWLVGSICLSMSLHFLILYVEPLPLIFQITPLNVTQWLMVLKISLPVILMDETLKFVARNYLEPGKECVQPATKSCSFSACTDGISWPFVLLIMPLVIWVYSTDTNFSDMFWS

Substance | effect of a mutation on the interaction
Piezo-type mechanosensitive ion channel component 1 (Mus musculus), E2JF22 E2172A;K2173A;K2174A;Y2175A;P2176A;Q2177A;P2178A;K2179A;G2180A;Q2181A | decreasing interaction strength
Piezo-type mechanosensitive ion channel component 1 (Mus musculus), E2JF22 K2182A;K2183A;K2184A;K2185A | decreasing interaction strength
